# According to patent publication US20110189194A1, “USE OF CD95 INHIBITORS FOR THE TREATMENT OF INFLAMMATORY DISORDERS” (Deutsches Krebsforschungszentrum Stiftung des offentlichen …, priority 2008, published 2011):
# “Also recorded” adds a separate entry of the source.
# T1: mouse CD95L (Mus musculus, UniProt P41047)
# T1 construct: T4 (bacteriophage T4 fibritin foldon trimerisation domain)
# T1 sequence (P41047 with tags, fused parts or gaps limits assumed): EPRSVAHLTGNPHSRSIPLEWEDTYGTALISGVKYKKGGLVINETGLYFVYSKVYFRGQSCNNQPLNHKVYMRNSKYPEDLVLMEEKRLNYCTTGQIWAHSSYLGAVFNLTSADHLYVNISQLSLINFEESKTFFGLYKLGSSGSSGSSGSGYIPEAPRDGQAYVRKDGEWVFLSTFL
# T2: human CD95L (Homo sapiens, UniProt P48023)
# T2 construct: T4 (bacteriophage T4 fibritin foldon trimerisation domain)
# T2 sequence (P48023 with tags, fused parts or gaps limits assumed): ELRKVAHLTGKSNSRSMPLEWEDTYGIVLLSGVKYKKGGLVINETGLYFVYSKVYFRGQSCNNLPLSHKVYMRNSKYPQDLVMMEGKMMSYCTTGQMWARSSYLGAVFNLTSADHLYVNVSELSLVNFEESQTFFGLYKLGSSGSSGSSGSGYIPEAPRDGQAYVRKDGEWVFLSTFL
# B1: CD95-RB69: CD95L-neutralizing trimeric fusion protein: human CD95-ECD (M1-E168) fused to bacteriophage RB69 fibritin foldon domain, with streptag-II (protein)
# chain: MVGIWTLLPLVLTSVARLSSKSVNAQVTDINSKGLELRKTVTTVETQNLEGLHHDGQFCHKPCPPGERKARDCTVNGDEPDCVPCQEGKEYTDKAHFSSKCRRCRLCDEGHGLEVEINCTRTQNTKCRCKPNFFCNSTVCEHCDPCTKCEHGIIKECTLTSNTKCKEEGSSGSSGSSGSGYIEDAPSDGKFYVRKDGAWVELPTASGPSSSSSSAWSHPQFEK
# modifications: CD95-RB69 fusion protein
# notes: CD95L-neutralizing trimeric fusion protein: human CD95-ECD (M1-E168) fused to bacteriophage RB69 fibritin foldon domain, with streptag-II
# What was measured:
# [1] = treated within the first 8 h of injury, compared to placebo, naloxone, or MPSS at later time points; cited from earlier work
# mouse CD95L = biological target: T1, mouse CD95L; test: Neutralisation of mouse CD95L-T4 induced apoptosis on Jurkat cells (DEVD-AFC cleavage); format: cell-based; conditions: 250 ng/ml mouse CD95L-T4
# Experimental: (§1) Mutation of R87S abrogates the ability of the CD95-RB69 protein to inhibit CD95L-mediated killing of Jurkat cells. Jurkat cells were incubated with 250 ng/ml of human (A) or mouse (B) CD95L-T4 in the presence of wild-type and mutant CD95-RB69 in duplicates for each concentration of the fusion proteins. Decreased cell death is represented by low DEVD-AFC cleavage rates.
# (§2) While we were using a human CD95 fusion protein in mouse, we had to analyse the binding of the R87S based control-protein for the human CD95/murine CD95L-interaction prior to the studies performed. We addressed this question by examining the ability of the CD95-fusion proteins to neutralise the apoptosis inducing capacity of either human or mouse CD95L on Jurkat cells in vitro.
# human CD95L = biological target: T2, human CD95L; test: Neutralisation of human CD95L-T4 induced apoptosis on Jurkat cells (DEVD-AFC cleavage); format: cell-based; conditions: 250 ng/ml human CD95L-T4
# Experimental: as §1, §2
# injured spinal cord [2] = test: Immune cell infiltration into the injured spinal cord after SCI (flow cytometry); format: in vivo, mice
# Experimental: SCI models: Transection injury of the spinal cord was performed as previously described (Demjen et al., 2004). For the crush injury model, forceps were held on the spinal cord for 15 seconds resulting in a lateral compression of the spinal cord (Plemel et al., 2008). Immediately following injury and for an additional week mice received antibiotics (Gentamycin, 5 ml/kg of a 0.2 mg/ml solution) to prevent infections. Post-operative care included housing of the animals at 27° C., food and water ad libitum, and manual expression of the bladders once daily.
# (§3) Mice were treated intravenously 5 minutes after SCI or induction of thioglycolate-induced peritonitis with 50 μg (solved in 200 μl sterile PBS) of either CD95-RB69 or a mutated form, CD95-(R87S)-RB69, which is unable to bind CD95L.
# Stainings were performed on cells derived from bone marrow, peritoneum, blood or spinal cord tissue. For preparation of mouse cells derived from spinal cord tissue, the animals were perfused with HBSS to remove blood from the organs. Then the spinal cord (1 cm around the lesion site) was isolated and lysed for 3 h in thermolysin (0.5 mg/ml, Sigma #T-7902) on a shaker at 37° C. Tissue was incubated for 10 more minutes in trypsin 0.5%-EDTA (Invitrogen #25300096) and finally homogenized by passing 10 times through a Pasteur pipette and through a 40 μm cell strainer (BD #352340).
# For all stainings, cells were resuspended in FACS buffer (PBS, 0.2% NaN3) and preincubated in Fc block for 10 minutes before stained with the respective antibodies 30 minutes on ice. For intracellular stainings blood samples were fixed with 4% PFA after Ery Lysis and permeabilized with methanol before the staining. Samples were run on a FACSCantoll flow cytometer (BD) and analyzed using FACSDiva (BD) software or FlowJo software. For all FACS analyses done on cells derived from spinal cord tissue 1,000,000 events were counted.
# For all tissue analysis, neutrophils were identified as CD45 positive, GR-1 high-positive and their characteristic forward (FSC) and side scatter (SSC) profile. […]
# injured spinal cord [3] = test: Gene expression profiling (microarray) of spinal cord 24 h after SCI; format: in vivo, mice; conditions: compared to vehicle-treated
# Experimental: as §3
# For tissue, spinal cords were dissected out and RNA was extracted with the mirVana microRNA Extraction Kit essentially according to the manufacturer's protocol (Ambion #AM1560). mRNA of injured mice were represented as normalized to the respective uninjured animals. Cells from peritoneal exudates or bone-marrow derived cells were washed with PBS and taken up in RLT-buffer containing β-mercaptoethanol. RNA was extracted using the RNeasy Mini Kit (Qiagen, #74104).
# .Cel files were generated using Affymetrix software and imported into Chipinspector. The data were analyzed by Genomatix Chipinspector as described by the manufacturer's guidelines (Genomatix GmbH, Munich, Germany, http://www.genomatix.de). dChip software was used for hierarchical clustering of datasets (http://biosuntharvard.edu/complab/dchip/). A 5% p-value was applied as a cut-off. […]
# peritoneum = test: Thioglycolate-induced peritonitis, infiltration of neutrophils; format: in vivo, mice
# Experimental: as §3
# For thioglycolate-induced peritonitis, 1 ml of 3% thioglycolate broth (Fluka #70157) was injected i.p. in CD95L^f/f;LysMcre and CD95L^f/f mice or in wt mice acutely treated with CD95-RB69 or its respective control. In this model, neutrophils are known to start infiltrating the peritoneum within the first hours, whereas macrophage infiltration peaks at 72 h. At the indicated times, mice were sacrificed, blood samples collected and peritoneal cavities lavaged with 10 ml sterile Hanks balanced salt solution (HBSS; Invitrogen #14170-138) containing 0.25% bovine serum albumin (Roche #10735094001). Total cell counts were performed in a Neubauer hematocytometer (Brand), and differential cell counts were carried out by flow cytometry. Results are expressed as the absolute number of neutrophils or macrophages×10^5/cavity. For every experiment performed, blood immune cell populations were analyzed by the appropriate cell markers.
# [4] = 24 h after SCI, 50 μg i.v. 5 minutes after SCI, 1,000,000 events counted
Molecule,motor and sensory function of spinal injured patients [1],neutralisation of the apoptotic activity of mouse CD95L (mouse CD95L),neutralisation of the apoptotic activity of human CD95L (human CD95L),"CD45 cells in injured spinal cord, Events ± SEM (injured spinal cord [2]; [4])","Neutrophils in injured spinal cord, Events ± SEM (injured spinal cord [2]; [4])","infiltration of neutrophils into the lesion site (in words) (injured spinal cord [2]; 24 hours after injury, systemic administration)",expression of genes involved in apoptosis (injured spinal cord [3]),expression of genes involved in the immune response (injured spinal cord [3]),"Neutrophil number ± SEM in peritoneal cavity (peritoneum; 6 h after thioglycolate, 50 μg i.v. 5 minutes after induction)",infiltration of neutrophils into the peritoneum (in words) (peritoneum; 6 hours after thioglycolate injection)
"C[C@H]1C[C@@H]2[C@H]([C@@H](O)C[C@@]3(C)[C@H]2CC[C@]3(O)C(=O)COC(=O)CCC(=O)O)[C@@]2(C)C=CC(=O)C=C12 [MPSS, methylprednisolone sodium succinate]",significantly improved motor and sensory function,–,–,–,–,–,–,–,–,–
B1,–,efficiently neutralises,efficiently neutralises,CD45: 698 ± 57 Events,Neutrophils: 400 ± 54 Events,decreased; also recorded: reduced,reduced; also recorded: down-regulation,down-regulation,13.92 ± 1.46 *10^5,significantly reduced; also recorded: Reduced infiltration
